Source: US20250161357A1, “HUMAN T CELL RECEPTOR PAIRS REACTIVE WITH HLA-A*02:01 RESTRICTED HUMAN PROSTATIC ACID PHOSPHATASE (PAP) EPITOPES” (The Regents of the University of California, priority 2022, published 2025)
Blank lines part the entries; values can stand above or below the molecule they belong to.

What was measured:
HLA-A*02:01 [1] = biological target: HLA-A*02:01 (Homo sapiens, UniProt P04439, D140Y/D185E/D98H/E176V/E277Q/G131W/G231S/I119V/I121R/I166T/I218V/L300P/L318F/N151K/N90K/P208A/P217A/Q86G/Q94H/R138H/R169H/T345S); test: T2 peptide binding (stabilization) assay; type: cell-based; conditions: peptides exogenously pulsed on T2 cells; anti-HLA-A2 FITC (BB7.2), FACS
[2] = men with metastatic castration-resistant prostate cancer; cited from earlier work
PAP = biological target: T1, PAP (Homo sapiens, UniProt P15309); conditions: positive response SI>5 at week 6 post immunization; cited from earlier work
T1 sequence (P15309 33-386): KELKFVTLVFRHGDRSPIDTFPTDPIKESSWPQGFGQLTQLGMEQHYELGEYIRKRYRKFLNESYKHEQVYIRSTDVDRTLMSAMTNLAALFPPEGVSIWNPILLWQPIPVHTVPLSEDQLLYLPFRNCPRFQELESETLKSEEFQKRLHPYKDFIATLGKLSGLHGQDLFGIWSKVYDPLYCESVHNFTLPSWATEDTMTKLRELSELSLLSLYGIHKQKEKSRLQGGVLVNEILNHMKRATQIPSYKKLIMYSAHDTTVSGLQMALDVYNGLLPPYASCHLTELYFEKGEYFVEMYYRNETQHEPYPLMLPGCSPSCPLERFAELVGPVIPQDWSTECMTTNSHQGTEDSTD

PAP+ target cells = conditions: video evidence; cited from earlier work
HLA-A*02:01 [3] = biological target: T2, HLA-A*02:01 (Homo sapiens, UniProt P04439, D140Y/D185E/D98H/E176V/E277Q/G131W/G231S/I119V/I121R/I166T/I218V/L300P/L318F/N151K/N90K/P208A/P217A/Q86G/Q94H/R138H/R169H/T345S/Y108C); test: Secreted single-chain trimer (SCT) quantification assay
T2 construct: made in house
Source text: Peptide-MHC I complexes processed by endogenous machinery might show different stability compared to exogenous peptide pulsing (such as in T2 binding assays). This can be the result of post-translational modifications (PTMs). A recently developed technique, secreted single-chain trimer (SCT), was used to evaluate relative stability of pMHC of interest (36). In the secreted SCT construct, MHC I heavy chain (HLA-A*02:01 alpha chain with H74L and Y84C mutation), light chain (beta-microglobulin), and corresponding peptide were tethered by linkers as one single chain molecule (FIG. 3a). Constructs were expressed in cells and released into culture supernatant. Only peptides favored by HLA-A*02:01 are expected to generate a stable SCT and have higher yields. The quantity of SCTs was measured by band intensity on SDS-PAGE and normalized against a well-known WT1 cancer epitope that is restricted on HLA-A*02:01 ([…]) (FIG. 3b) (37, 38).
SCT quantification assay: SCT constructs (mutant H74L/Y84C) with individual PAP peptides were synthesized according to the previously published protocol (36).

[4] = biological target: T3, prostatic acid phosphatase (PAP); peptide PAP_A2_25 peptide on HLA-A*02:01 (human); test: cytokine release
T3 peptide: IMYSAHDTTV

HLA-A*02:01 on T2 cells [5] = biological target: T4, HLA-A*02:01 on T2 cells (human); test: T2 binding assay, HLA-A2 on T2 cells by anti-A2 (BB7.2) FITC flow cytometry
T4 construct: also called HLA-A2; A2

HLA-A*02:01 on T2 cells [6] = biological target: T4, HLA-A*02:01 on T2 cells; test: T2 stabilization assay, HLA-A2 on T2 cells by anti-A2 (BB7.2) FITC flow cytometry
[7] = biological target: T5, prostatic acid phosphatase (PAP); peptide PAP_A2_21 peptide on HLA-A*02:01 (human); test: activation reporter or marker
T5 peptide: LLLARAASLSL

[8] = biological target: T6, prostatic acid phosphatase (PAP); peptide PAP_A2_14 peptide on HLA-A*02:01 (human); test: multimer staining
T6 peptide: ILLWQPIPV

HLA-A2 signal in T2 assay (slope of natural log of A2 fluorescent intensity vs diluted peptide concentration) (HLA-A*02:01 [1]): Positive
Molecule: IMYSAHDTTV (listed as Homo sapiens) [PAP-A2-25]

HLA-A2 signal in T2 assay (slope of natural log of A2 fluorescent intensity vs diluted peptide concentration) (HLA-A*02:01 [1]): Positive
Molecule: LLLARAASLSL (listed as Homo sapiens) [PAP-A2-21]

Molecule: sipuleucel-T
median improvement in overall survival [2]: 4.1 months | patients displaying T cell proliferation responses to PAP (PAP): 27.2% | lysis of PAP+ target cells by T cells from treated patients (PAP+ target cells): capable of lysing

Molecule: SVHNFTLPSW (listed as Homo sapiens) [PAP-A2-24]
affinity toward HLA-A*02:01 after glycosylation (HLA-A*02:01 [3]; N-glycosylated peptide in SCT): altered affinity | SCT yield normalized to control WT1 epitope (RMFPNAPYL) (HLA-A*02:01 [3]; band intensity on SDS-PAGE, cutoff 0.2 for relatively high stability): 1.40

HLA-A2 signal in T2 assay (slope of natural log of A2 fluorescent intensity vs diluted peptide concentration) (HLA-A*02:01 [1]): Positive
Molecule: ILLWQPIPV (listed as Homo sapiens) [PAP-A2-14]

HLA-A2 signal in T2 assay (slope of natural log of A2 fluorescent intensity vs diluted peptide concentration) (HLA-A*02:01 [1]): Positive
Molecule: KVYDPLYCESV (listed as Homo sapiens) [PAP-A2-20]

binding result [4]: recognises
B1: PAP-TCR-213 (TCR, V domains shown)
Valpha: TQLLEQSPQFLSIQEGENLTVYCNSSSVFSSLQWYRQEPGEGPVLLVTVVTGGEVKKLKRLTFQFGDARKDSSLHITAAQPGDTGLYLCAGAPETSGSRLTFGEGTQLTVNP
Vbeta: GAGVSQTPSNKVTEKGKYVELRCDPISGHTALYWYRQSLGQGPEFLIYFQGTGAADDSGLPNDRFFAVRPEGSVSTLKIQRTERGDSAVYLCASSFGGGSSPLHFGNGTRLTVT

binding result (HLA-A*02:01 on T2 cells [5]): binds
Molecule: TLMSAMTNL [PAP-A2-22 peptide TLMSAMTNL]

binding result (HLA-A*02:01 on T2 cells [6]): binds
Molecule: KVYDPLYCESV [PAP-A2-20 peptide KVYDPLYCESV]

binding result [7]: recognises
B2: PAP-TCR-175 (TCR, V domains shown)
Valpha: ILNVEQSPQSLHVQEGDSTNFTCSFPSSNFYALHWYRWETAKSPEALFVMTLNGDEKKKGRISATLNTKEGYSYLYIKGSQPEDSATYLCAFEDSGYSTLTFGKGTMLLVSP
Vbeta: DAGITQSPRYKITETGRQVTLMCHQTWSHSYMFWYRQDLGHGLRLIYYSAAADITDKGEVPDGYVVSRSKTENFPLTLESATRSQTSVYFCASGGLAGVDEQYFGPGTRLTVT

binding result [7]: recognises
B3: PAP-TCR-225 (TCR, V domains shown)
Valpha: DQQVKQNSPSLSVQEGRISILNCDYTNSMFDYFLWYKKYPAEGPTFLISISSIKDKNEDGRFTVFLNKSAKHLSLHIVPSQPGDSAVYFCAASVDEKLTFGTGTRLTIIP
Vbeta: DTGVSQNPRHKITKRGQNVTFRCDPISEHNRLYWYRQTLGQGPEFLTYFQNEAQLEKSRLLSDRFSAERPKGSFSTLEIQRTEQGDSAMYLCASSLQVEQFFGPGTRLTVL

binding result (HLA-A*02:01 on T2 cells [6]): binds
Molecule: LLLARAASLSL (also called PAP-21) [PAP-A2-21 peptide LLLARAASLSL]

binding result [8]: recognises
B4: PAP-TCR-204 (TCR, V domains shown)
Valpha: AQSVTQPDIHITVSEGASLELRCNYSYGATPYLFWYVQSPGQGLQLLLKYFSGDTLVQGIKGFEAEFKRSQSSFNLRKPSVHWSDAAEYFCAVGAGDYKLSFGAGTTVTVRA
Vbeta: ETGVTQTPRHLVMGMTNKKSLKCEQHLGHNAMYWYKQSAKKPLELMFVYSLEERVENNSVPSRFSPECPNSSHLFLHLHTLQPEDSALYLCASSQTTGQPQHFGDGTRLSIL
